# According to the supplement of paper PMC10126150:
# ± gives the standard deviation of the averaged measurements.
# System: ATP
# Experiment: switch fluorescence ratio, 500 uM ATP over buffer (Cy3 cluster intensity, sum of 5 cycles each) (fold (ratio)); higher = stronger signal-on switching upon ATP binding; sequences stand for … in TCGTCGGCAGCGTCAGATGTGTATAAGAGACAGTTTTTTTTTTTTTTTTTTTTTTTTT…TC
# Conditions: aptamer strand: ATP DNA aptamer (quencher-CACCTGGGGGAGTATTGCGGAGGAAGG + anchor), 100 nM annealed; ATP concentration: 500 uM
# Summary of the method: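 Cy3-labelled switching-strand clusters on a modified Illumina MiSeq flow-cell were annealed to 100 nM quencher-labelled ATP aptamer, imaged in selection buffer, then imaged after 15 min with 500 uM ATP at 22 °C. Five buffer/ATP cycles ran, with NaOH stripping and re-annealing between them. The fluorescence ratio is summed target-cycle over summed buffer-cycle Cy3 intensity per cluster, averaged per switch-domain sequence. Clusters outside 100-1000 RFU were excluded.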
# 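Further: ATP exposure 15 min at 22 °C before imaging.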
row,Sequence,switch fluorescence ratio
1,TATTTTGGGC,0.997 ± 0.046
2,TTTTTAATGG,1.01 ± 0.034
3,GTGTGACCGT,1.02 ± 0.024
4,ATTCAGCCGC,1.62 ± 0.083
5,GGTACGAAGT,1.01 ± 0.027
6,GCCTCATAGG,0.994 ± 0.019
7,TTTTGGGGAC,0.988 ± 0.043
8,TAGCGGGCTT,0.983 ± 0.025
9,GAAGTGTGAA,1 ± 0.022
10,TTTGTTTTGC,0.971 ± 0.019
11,TTTGAATTTA,1 ± 0.039
12,AATTAAGGGG,0.997 ± 0.029
13,ATCACATTGG,1.02 ± 0.071
14,GAGTGAGGTT,0.955 ± 0.046
15,CCGGGGGAAG,1.04 ± 0.035
16,TGTAACTTCG,1.001 ± 0.0082
17,CTGTGCGCCA,1.122 ± 0.0038
18,GGATACCGTA,1 ± 0.085
19,TCTGTAGTTG,0.997 ± 0.04
20,TAACGGACTA,1.29 ± 0.023
21,TCAGGGACGA,1.02 ± 0.055
22,TGTTCTTTTT,0.993 ± 0.038
23,TTTAATTA,1.01 ± 0.032
24,CGCCGATTAA,1.03 ± 0.062
25,CGGGCATATA,1.1969 ± 8.5e-05

row,Sequence,switch fluorescence ratio
1,CCGAGGGGGA,1.26 ± 0.17
2,GTTTTTTAAA,0.987 ± 0.04
3,AGGCTGAGCT,0.979 ± 0.051
4,GGAAGGGTTT,1.03 ± 0.061
5,TTTTTGGGTG,1.03 ± 0.058
6,CGCGGGGGAT,1.03 ± 0.067
7,TACCAGCCGA,1.06 ± 0.043
8,TGAGATGGTT,1.01 ± 0.029
9,TGGCACTTTT,1.006 ± 0.0063
10,AAAGATTATT,1 ± 0.021
11,GGTGCTGGTG,1.05 ± 0.025
12,TTTGGAATTT,1.06 ± 0.1
13,GATAGTGAGT,0.988 ± 0.016
14,AAAAGCGCGG,1.13 ± 0.074
15,GAGACGACCA,1.15 ± 0.029
16,GATCCTTGGG,1.022 ± 0.0056
17,GCGAGACTGT,1.07 ± 0.04
18,GGGTTAGAGG,0.9959 ± 0.0071
19,TGCTTGTTAC,1.03 ± 0.018
20,CAATAAGATT,1.016 ± 0.0077
21,GAGCTCTTAT,1 ± 0.038
22,TCGTTGGTGG,0.984 ± 0.06
23,GAGAGAGGGA,1.01 ± 0.034
24,AGGTTTTGGG,0.979 ± 0.022
25,GTACGAGTCC,1.01 ± 0.015

row,Sequence,switch fluorescence ratio
1,ATTAGAAGAC,1 ± 0.027
2,GGCGAAAGGA,1 ± 0.041
3,AACTATAATG,0.997 ± 0.044
4,GACTTTTGTA,0.9812 ± 0.0045
5,AAGAGGAGAG,1.036 ± 0.0073
6,GGGGAAAAAT,1.01 ± 0.032
7,GGAGATTGTG,0.9766 ± 0.0043
8,CTAGTCGCCG,1.003 ± 0.0097
9,AATACTACTA,1.05 ± 0.053
10,TCGCGTTTCT,1.03 ± 0.088
11,TATTGAGGGG,1 ± 0.038
12,GGGTAAGATC,1.022 ± 0.0083
13,GGTGTTGAGT,0.993 ± 0.037
14,CATGGGAGAC,0.986 ± 0.022
15,TTGACGCTAA,2.37 ± 0.65
16,GTGGAAGGGT,1.02 ± 0.042
17,AGTTAGCTT,1.02 ± 0.072
18,AAGATTTCGG,1.015 ± 0.0084
19,GGTCGGGTTT,1.01 ± 0.014
20,GCGTAAGCGG,0.981 ± 0.017
21,TTTAAGAAAT,0.986 ± 0.011
22,TGTGGTTGGG,0.989 ± 0.027
23,GAGTACTAGA,1.02 ± 0.018
24,ATTTCAATTT,1.01 ± 0.02
25,AAAATGTAGA,0.9919 ± 0.0016

row,Sequence,switch fluorescence ratio
1,AACGGTCACA,1.16 ± 0.021
2,GGAGTAAGAT,1.3 ± 0.018
3,TTTCCCCTTT,1.08 ± 0.15
4,CCACGGGGTT,1.06 ± 0.072
5,TTTCTAGAGA,1 ± 0.021
6,GGGTACTGTA,1.09 ± 0.041
7,AATGGATATG,1.02 ± 0.058
8,GGAAGGGTCG,1.04 ± 0.022
9,TGGGATAGAA,0.996 ± 0.019
10,GAACTTAGAT,1.01 ± 0.04
11,ATGCTATGGT,0.987 ± 0.013
12,CGCATAGTTG,1.06 ± 0.024
13,GATCGGCGCG,0.986 ± 0.025
14,TTTAGTCGCA,0.998 ± 0.035
15,TTAGCGTTGT,0.96 ± 0.028
16,TAGATTTT,0.9953 ± 0.007
17,TTCGGGAGAG,0.996 ± 0.071
18,TGGGTAGTGT,1 ± 0.026
19,CGAGCATTTT,1.14 ± 0.017
20,ATTTTGCGGA,0.968 ± 0.013
21,AATTAAGTGT,0.969 ± 0.021
22,ATTCTCAGTG,1.01 ± 0.038
23,GCCATTAGCA,1.022 ± 0.005
24,GTACTATTTT,1.036 ± 0.0037
25,GTGTTAGGCG,0.981 ± 0.018
